Results: the supplement of paper PMC9170038

Test system: MS2 coat protein
Test: apparent KD of MS2 coat protein; designed switch direction (-1 OFF switch, 1 ON switch): -1; higher = weaker reporter binding
Method in brief: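 Designed RNA switches were transcribed on Illumina chips by stalled E. coli RNA polymerase and titrated with SNAP-549-labelled MS2 coat protein from 0.7 or 1.5 nM, doubling to 3 µM. Step length ran from 0.8–1.5 h at the lowest concentration to 10–20 min at the highest. The apparent KD is the median over clusters for each design, from curve-fitted normalised cluster fluorescence.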

[1] = input ligand: microRNA oligo, concentration not stated
[2] = Eterna round: R95, input ligand: microRNA oligo, concentration not stated
[3] = Eterna round: R95, input ligand: FMN 200 uM
[4] = Eterna round: R95, input ligand: none

| Sequence | apparent KD of MS2 coat protein (input ligand: FMN 200 uM) [nM] | apparent KD of MS2 coat protein (input ligand: none) [nM] | apparent KD of MS2 coat protein [2] [nM] | other results |
| --- | --- | --- | --- | --- |
| GGUGAAGCAGGAUAUGUAUCGAUAUACAUGAGGAUCACCCAUGUCAUGUAGAAACCGCAUAUAGAAGGGCUUCACC [Exclusion 5 (FMN-MS2 slide v.6)] (Eterna round: R97, puzzle: Exclusion 5) | 163 | 47.4 |  |  |
| UUUGUUUUGCAAGGAUAUGUUUAAUUUUAUUUUCCUUACACAUGAGGAUCACCCAUGUUAUACUUACAGAAGGUGCGUAAUUUG [Excl-NG2-LRO04] (Eterna round: R96, puzzle: Exclusion NG 2) |  |  |  | apparent KD of MS2 coat protein [1]: 165 nM |
| GUGGCACAUGAGGAUCACCCAUGUCAGGAUAUCGCGUGUUUUUUUUCGGCCGCGCGCGCGAGAAGGGACGUCUU (puzzle: Exclusion 1) |  |  | 22.8 |  |
| UAUGGUUAAGUCAGGAUAUACAAAUAGAAAUCUGAGUAGAAGGGACAUGAGGAUCACCCAUGUAUGGUAGUGUU [Ex4 #57] (Eterna round: R97, puzzle: Brourd's mod of Exclusion 4) | 79 | 74.3 |  |  |
| CUUUUGUGAGGAUAUUAGUAGUAAAUAAAUAAAAUUACUACUUAGAAGGCACAUGAGGAUCACCCAUGUUCCUC [salish99_ex4_r3_043] (Eterna round: R96, puzzle: Exclusion 4) | 238 | 29.6 |  | apparent KD of MS2 coat protein [1]: 25.8 nM |
| UAUUAGCAAGCGAGAUCCCACAUGAGGAUCACCCAUGUGCUCGUCUUAUAAAGUACUGUGACGAAAGUCACGGUACG [Mat - Sensor, turn-off var - Eli Mod - D10] (Eterna round: R97, puzzle: Sensor, turn-off variant 1) | 15.1 | 14.6 |  |  |
| AACCUACAUGAGGAUCACCCAUGUGAGGAUAUAUUGUUAUUUAUAUUAUUUUUUAGAGGUAGAAGGCGCGUGAU [JR_Exc1_Sub020] (Eterna round: R97, puzzle: Exclusion 1) | 15.9 | 17.3 |  |  |
| UUGUAGUGAGGAUAUAUAUAGUGGUUUUAUUAAUUUUUAUUACUUGAGGAUCACCCAAGUAGAAGGCGCAAAGU [JR_Ex2_Sub071] (Eterna round: R97, puzzle: Exclusion 2) | 19.2 | 18.3 |  |  |
| UUAAAUCAUGUAGGAUAUGCGUGGCGAAGCUAUGCAGAAGGACAUGAGGAUCACCCAUGUUCUAGCGUCUGAGUACAGAUGCAA [Mat - Exclusion NG 1 - Mod of JL - D2] (Eterna round: R96, puzzle: Exclusion NG 1) | 244 | 18.9 |  | apparent KD of MS2 coat protein [1]: 17.4 nM |
| UUUAAUUUUUUUUUUUUACAAGCUUUUUGCUCGUCUUAUACAUGAGGAUCACCCAUGUGAAUGGAAGGUAAAUUAUC [JMF 68] (puzzle: Sensor v3, turn-off variant 2) |  |  | 18.4 | apparent KD of MS2 coat protein [3]: 17.3 nM; apparent KD of MS2 coat protein [4]: 20.4 nM |
| UAUGUCGACAAGGAUAUUUGCGCAAACGACCACAAAGAAGGUGUCACAUGAGGAUCACCCAUGUGGUGUGGGCC [Eternabot (L1) Solution 83] (Eterna round: R97, puzzle: Exclusion 6) | 202 | 209 |  |  |
| GUAGAGUCAGGAUAUACGAGAUCGAAAGAUCGGCGGUCCAUACAUGAGGAUCACCCAUGUAGAAGGGACUCUAC [Omei mod 5 to Eli's favorate candidate (ch.parushev)] (Eterna round: R97, puzzle: Exclusion 2) | 115 | 18.3 |  |  |
| CAUUACUGCAGGCUUCGGGACAUGAGGAUCACCCAUGUUCGUCUUAUUGAUCUAGGUACGCUGACGUACCUAGAUCU [JL-sv1-2.25 Brourd mod] (puzzle: Sensor v3, turn-off variant 1) |  |  | 16.1 | apparent KD of MS2 coat protein [3]: 17.3 nM; apparent KD of MS2 coat protein [4]: 15.6 nM |
| CUUUUGUGAGGAUAUUAGUAGUAAAUAAAUAAAAUUACUACUGAGAAGGCACAUGAGGAUCACCCAUGUUCCUC [salish99_ex4_r3_041] (puzzle: Exclusion 4) |  |  | 34.6 |  |
| GGUACUAACACGAAAGUGUUAGUACUAUAAGCUUGUGUUACAUGAGGAUCACCCAUGUCCUCAUAGGCUCGUCUUAU [JL-sv3-2.18 mat747 mod] (puzzle: Sensor v3, turn-off variant 2) |  |  | 29.9 | apparent KD of MS2 coat protein [3]: 292 nM; apparent KD of MS2 coat protein [4]: 252 nM |
| UAUAUAUAGUAAGGAUAUGUAUAUAUUGUAUAAACAGAAGGUACUGACAUGAGGAUCACCCAUGUUUUAGUGUGGGCAUGUAGA [JMF's solution 61] (Eterna round: R96, puzzle: Exclusion NG 1) |  |  |  | apparent KD of MS2 coat protein [1]: 57.5 nM |
| UAGAUUCAUUCCUCUAUAAACAUGAGGAUCACCCAUGUAAGUGAGGAUAUAGUAGGAGUUGUAUACUAGAAGGCACUUAGUUUU [JR_ExcNG3_Sub049] (Eterna round: R96, puzzle: Exclusion NG 3) | 49.4 | 13.3 |  | apparent KD of MS2 coat protein [1]: 10.7 nM |
| CACCGUUAGGGAGGAUAUCGUACAUGAGGAUCACCCAUGUAAUAAAUGAGAAUUUCGGAUGUAUGCGAGAAGGCCCAAAUCGGC [Ostracism 42 - Jieux - Exclusion NG 2] (Eterna round: R96, puzzle: Exclusion NG 2) | 36.8 | 48.4 |  | apparent KD of MS2 coat protein [1]: 35.8 nM |

| Sequence | apparent KD of MS2 coat protein (input ligand: FMN 200 uM) [nM] | apparent KD of MS2 coat protein (input ligand: none) [nM] | apparent KD of MS2 coat protein [2] [nM] | other results |
| --- | --- | --- | --- | --- |
| AGGAAGCAAGGAUAUACGAGGAGAAGGUGGAGAGUUAAAGGACAUGAGGAUCACCCAUGUAGAAGGUGCGAGAA [JR_Exclu2_Sub045] (puzzle: Exclusion 2) |  |  | 52.2 |  |
| AGAUCACAUGAGGAUCACCCAUGUCAGGAUAUGAUACUAUGUACUUCGGUACAUAGUAUCAGAAGGGACAUAAA [Ex1-3: 69] (puzzle: Exclusion 1) |  |  | 140 | apparent KD of MS2 coat protein [3]: 31.5 nM; apparent KD of MS2 coat protein [4]: 89.2 nM |
| ACAAGCUUAAUCUGUAUGAACAUGAGGAUCACCCAUGUAUAAGGGAAUUCUUUUGGGUUUUUUAUAGCUCGUCUUAU [JR_STOV1_Sub020] (Eterna round: R97, puzzle: Sensor, turn-off variant 1) | 280 | 337 |  |  |
| CCACGUCUGCAGGAUAUCAGAUUGUAAGAUCGAUGAGAAGGGCAGACAUGAGGAUCACCCAUGUCCGCCACCAA [EX6 C.10] (Eterna round: R97, puzzle: Exclusion 6) | 20.6 | 20.6 |  |  |
| CUUUUGUGAGGAUAUUAGUAGUAAAUUAAUAAAAUUACUACUGAGAAGGCACAUGAGGAUCACCCAUGUUCCUC [salish99_ex4_r3_054] (puzzle: Exclusion 4) |  |  | 39.7 |  |
| CCCAUGUCAGGAUAUUAGAUACUGCCUCAAAACAAAGGCAUUGAGAAGGGACAUGAGGAUCACCCAUGUAAAAC [Leissobima] (Eterna round: R97, puzzle: Exclusion 4) | 59.5 | 183 |  |  |
| UGUUGUCGCGUAGGAUAUGGCCAACAGGCCCUAGGAUAUGCGAAAGCAGAAGGAGCGCCAACAGGCGAGAAGGACGGGACAACU [pwkr exNG2 2xF7 2xFMN.17] (Eterna round: R96, puzzle: Exclusion NG 2) | 20.6 | 359 |  | apparent KD of MS2 coat protein [1]: 13.6 nM |
| UAUGGUUAAGUCAGGAUAUGCUCGUAGAGGUCUAUGCAGAAGGGACAUGAGGAUCACCCAUGUAAAGUCGUGUU [Ex4 #70] (Eterna round: R97, puzzle: Brourd's mod of Exclusion 4) | 51.5 | 25.1 |  |  |
| AAUUUUUAUGUAAGGAUAUAAGUUUGGAAACGGGCUUAGAAGGUACAUGAGGAUCACCCAUGUAUAAUGUGCGU [-20.6, -20.4 kcal, 32% A] (Eterna round: R97, puzzle: Brourd's mod of Exclusion 4) | 52 | 23.2 |  |  |
| UCGUGAUUAGAGGAUAUAUUUUGAGUCAGAACAAUAGAAGGCUAAACAUGAGGAUCACCCAUGUAUAUGUGUAA [JR_Ex6_Sub062] (Eterna round: R97, puzzle: Exclusion 6) | 140 | 46.7 |  |  |
| AGUUGGCGAGGAUAUACAUGAGGAUCACCCAUGUGAGAGAUACUAGUGAGGUCGAUUGGUAGAAGGCGCUGACG [Mat - Exclusion 3 - Mod of JL D79] (puzzle: Exclusion 3) |  |  | 104 | apparent KD of MS2 coat protein [3]: 222 nM; apparent KD of MS2 coat protein [4]: 151 nM |
| CUUAGUAUCUAGGAUAUCUAGUACAUAGUAUCUAGAGAAGGAGAUACAUGAGGAUCACCCAUGUUCUGUGUUCU [Exclusion 6 - 1:b] (puzzle: Exclusion 6) |  |  | 22.2 |  |
| AUAUCAAGCAAGGAUAUGCAAAUGGUUAUUUAUGCAGAAGGUGCGACAUGAGGAUCACCCAUGUUUCUGGGUUU [JR_E6_Sub050] (puzzle: Exclusion 6) |  |  | 68.2 |  |
| GCAGAAUACUAGGAUAUGUUGGUCGGAGGGCCAACAGAAGGAGUUACAUGAGGAUCACCCAUGUUCCCAAUGGG [Eternabot (Original) Solution 49] (Eterna round: R97, puzzle: Exclusion 6) | 66.1 | 52.7 |  |  |
| UUUCGGCAUGUAGGAUAUGGAUCCGAUUAGGAUUUAGAAGGACAUGAGGAUCACCCAUGUGCAUUUAAUUGGUCAUUACCGUUU [EXclNG1-LROPPY08] (Eterna round: R96, puzzle: Exclusion NG 1) |  |  |  | apparent KD of MS2 coat protein [1]: 41.9 nM |
| AUGUAAGCGGAGGAUAUCUGGUGGAUACAGAUGGGAGAAGGUCGCACAUGAGGAUCACCCAUGUCGCAGAGAUG [Eternabot (L2) Solution 83] (Eterna round: R97, puzzle: Exclusion 6) | 44.1 | 55.3 |  |  |
| ACGCCAGGAGGAUAUGCAAUAAGUAACAUGAGGAUCACCCAUGUUCGGGCGAUCCUCGUGGCAGAAGGCCUAGCCG [Attira] (Eterna round: R97, puzzle: Exclusion 5) | 95.5 | 24.4 |  |  |
